Biological target: human cytosolic aminopeptidase P, R535A mutant (human) (UniProt Q9NQW7)
Sequence (Q9NQW7 whole entry R535A): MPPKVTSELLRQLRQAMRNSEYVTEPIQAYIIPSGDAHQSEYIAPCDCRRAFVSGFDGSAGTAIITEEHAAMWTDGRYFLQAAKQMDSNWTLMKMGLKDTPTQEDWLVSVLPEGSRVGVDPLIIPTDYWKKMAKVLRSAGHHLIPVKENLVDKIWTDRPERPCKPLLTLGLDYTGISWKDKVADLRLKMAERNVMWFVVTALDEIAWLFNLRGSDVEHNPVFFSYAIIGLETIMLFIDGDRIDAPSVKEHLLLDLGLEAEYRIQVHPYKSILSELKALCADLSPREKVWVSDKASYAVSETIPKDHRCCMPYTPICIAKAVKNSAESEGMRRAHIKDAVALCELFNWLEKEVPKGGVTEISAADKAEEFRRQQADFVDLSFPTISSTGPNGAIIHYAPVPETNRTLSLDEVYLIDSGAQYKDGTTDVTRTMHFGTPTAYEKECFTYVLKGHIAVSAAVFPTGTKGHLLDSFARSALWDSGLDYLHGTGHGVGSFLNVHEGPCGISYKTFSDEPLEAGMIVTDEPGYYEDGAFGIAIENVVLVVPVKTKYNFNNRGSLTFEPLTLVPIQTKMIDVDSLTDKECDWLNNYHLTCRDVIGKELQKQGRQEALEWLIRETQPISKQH

Chain of bradykinin (P01042 whole entry, looked up): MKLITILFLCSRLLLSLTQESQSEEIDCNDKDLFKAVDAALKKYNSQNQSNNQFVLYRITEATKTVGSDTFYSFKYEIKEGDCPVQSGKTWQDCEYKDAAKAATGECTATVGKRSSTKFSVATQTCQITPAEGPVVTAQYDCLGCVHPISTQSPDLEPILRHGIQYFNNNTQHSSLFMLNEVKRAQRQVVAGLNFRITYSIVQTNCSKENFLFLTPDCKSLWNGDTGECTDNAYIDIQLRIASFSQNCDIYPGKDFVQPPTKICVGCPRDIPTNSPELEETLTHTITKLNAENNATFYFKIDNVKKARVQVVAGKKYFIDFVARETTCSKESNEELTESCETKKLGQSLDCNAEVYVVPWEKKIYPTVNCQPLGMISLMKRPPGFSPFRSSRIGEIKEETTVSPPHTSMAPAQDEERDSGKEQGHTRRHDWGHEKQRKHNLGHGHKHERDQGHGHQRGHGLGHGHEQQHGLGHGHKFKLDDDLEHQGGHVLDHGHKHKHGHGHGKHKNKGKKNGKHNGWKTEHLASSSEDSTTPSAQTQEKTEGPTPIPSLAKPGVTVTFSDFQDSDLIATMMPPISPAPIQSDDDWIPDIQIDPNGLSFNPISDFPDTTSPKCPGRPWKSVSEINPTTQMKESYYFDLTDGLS

bradykinin (from UniProt P01042 381-389) (peptide)
Km for bradykinin of the hydrolysis catalysed by R535A hcAMPP (HPLC of des-Arg-bradykinin, 50 mM Tris-HCl pH 7.5, 37°C), with 0, 0.1, 1 and 10 mM guanidine hydrochloride: 350, 327, 144 and 163 μM: 350 μM

From paper PMC5774706
